This note sets out measurements from US6319702A, “Nucleic acids encoding mutant human carboxypeptidase A enzymes” (Glaxo Wellcome, Inc., priority 1993, dated 2001).

Data set [1] in a line: Prodrug toxicity, maximum tolerated dose. The settings on record: Swiss nu/nu mice, IV daily for 5 days.
A short description of the next data set: in vivo. The settings on record: mouse, iv.
Substrate in data set [2]: CN(Cc1cnc2nc(N)nc(N)c2n1)c1ccc(C(=O)N[C@@H](CCC(=O)O)C(=O)N[C@@H](Cc2ccccc2C2CCCC2)C(=O)O)cc1
In words: Enzyme kinetics of prodrugs with wild type human carboxypeptidase A1 (coupled assay). Type of data set: biochemical. The settings on record: other: Human CPA1, 25° C., pH 7.4. The source says: (§1) As indicated herein, the in vivo stable prodrug of the present invention should be a better substrate for a mutant enzyme than the corresponding wild type enzyme in order for the stable prodrug to be activated selectively at the tumour. […] The most relevant kinetic constant in the table is the kcat/Km, which provides an estimate of the second order rate constant for the enzyme catalyzed conversion of prodrug to methotrexate. Thus, the larger the kcat/Km, the more efficient the enzyme with a particular substrate. […] Thus, the single mutation at 268 from thr to gly converted very poor substrates in the wild type enzyme to excellent substrates in the mutant enzyme. […] Thus, the compounds are much better substrates for the mutant enzyme than the wild type enzyme which permits very specific tumor targeted activation of the nontoxic, stable prodrug to the active agent.
(§2) Kinetics were determined by a modification of the coupled assay of Kuefner, et al (1989) Biochemistry 28 2288-2297 in which the product MTX is converted by excess carboxypeptidase G to the pteroate of MTX. In this assay the reaction is followed spectrophotometrically at 315 nm; at this wavelength the change in molar absorbtivity for the coupled reaction was determined to be 9.57 mM^-1 cm^-1. Assays were performed at 25° C. in 25 mM tris-HCl, 100 mM NaCl, pH 7.4. […]

Substrate in data set [3]: CN(Cc1cnc2nc(N)nc(N)c2n1)c1ccc(C(=O)N[C@@H](CCC(=O)O)C(=O)N[C@@H](Cc2ccccc2)C(=O)O)cc1
The data set is described as above. The settings on record: other: Human CPA1, 25° C., pH 7.4. Type of data set: biochemical.
From the text: as §1, §2

Data set [4] can be described thus: IEF of proCPA and mature CPA. The class given is physicochemical. Here is the method: The final OD600 was 14. […] All subsequent buffers contained 0.1 mM Zn-acetate. […] Total protein=368 mg.

Turning to `CN(Cc1cnc2nc(N)nc(N)c2n1)c1ccc(C(=O)N[C@@H](CCC(=O)O)C(=O)O)cc1` [methotrexate, reference compound], the “maximum tolerated dose (MTD)” value in data set [1] is given as 2.5 mg/kg. The molecule also came in with an MTD in “in vivo” of 4 mg/kg.

B1: wild type human carboxypeptidase A1 (Homo sapiens) (protein)
chain: ARSTDTFNYATYHTLEEIYDFLDLLVAENPHLVSKIQIGNTYEGRPIYVLKFSTGGSKRPAIWIDTGIHSREWVTQASGVWFAKKITQDYGQDAAFTAILDTLDIFLEIVTNPDGFAFTHSTNRMWRKTRSHTAGSLCIGVDPNRNWDAGFGLSGASSNPCSETYHGKFANSEVEVKSIVDFVKDHGNIKAFISIHSYSQLLMYPYGYKTEPVPDQDELDQLSKAAVTALASLYGTKFNYGSIIKAIYQASGSTIDWTYSQGIKYSFTFELRDTGRYGFLLPASQIIPTAKETWLALLTIMEHTLNHPY
For orientation: Km means the concentration of substrate that gives half-maximal velocity. Regarding B1, the Km in data set [2] is 61 µM; in data set [3], 4.3 µM. This molecule came in with a pI in data set [4] of 6.2.
